Tested on: Escherichia coli TOP10
Assay: shrunken log2 fold change of peptide-encoding DNA abundance (4.5 h post-induction vs induction); higher = less antimicrobial activity (less host growth inhibition)
Settings: time post-induction: 4.5 h; library: site-saturation at positions 5, 18, 19, 20
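Also: peptides expressed intracellularly from a pBAD plasmid library in pooled LB shake-flask culture, induced with 0.3% L-arabinose, DNA abundance read by NGS, three biological replicates, DESeq2 with apeglm shrinkage.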

Going from RRIRFRPPRLPRPRPRPWFAPRP to RRIRFRPPRLPRPRPRPWFDPRP, the “shrunken log2 fold change” value rises from -0.582 to -0.101.

Compared with RRIRFRPPRLPRPRPRPWFHPRP, RRIRFRPPRLPRPRPRPWFRPRP is higher in “shrunken log2 fold change” value: -0.714 for the first, -0.151 for the second.

Going from RRIRFRPPRLPRPRPRPWFWPRP to RRIRFRPPRLPRPRPRPWFYPRP, the “shrunken log2 fold change” value falls from -0.285 to -0.587.

RRIRFRPPRLPRPRPRPWGLPRP and RRIRFRPPRLPRPRPRPWHAPRP are within 0.2 log units of each other in “shrunken log2 fold change” value: -0.168 for the first, -0.162 for the second.

Compared with RRIRFRPPRLPRPRPRPWLIPRP, RRIRFRPPRLPRPRPRPWLNPRP is higher in “shrunken log2 fold change” value: -0.441 for the first, -0.189 for the second.

RRIRFRPPRLPRPRPRPWNHPRP and RRIRFRPPRLPRPRPRPWNMPRP are within 0.2 log units of each other in “shrunken log2 fold change” value: -0.141 for the first, -0.24 for the second.

Compared with RRIRFRPPRLPRPRPRPWNQPRP, RRIRFRPPRLPRPRPRPWNSPRP is lower in “shrunken log2 fold change” value: 0.0676 for the first, -0.976 for the second.

RRIRFRPPRLPRPRPRPWPIPRP and RRIRFRPPRLPRPRPRPWPVPRP are within 0.2 log units of each other in “shrunken log2 fold change” value: -0.0205 for the first, 0.139 for the second.

RRIRFRPPRLPRPRPRPWPYPRP and RRIRFRPPRLPRPRPRPWRFPRP are within 0.2 log units of each other in “shrunken log2 fold change” value: 0.0261 for the first, 0.22 for the second.

RRIRFRPPRLPRPRPRPWRYPRP and RRIRFRPPRLPRPRPRPWSEPRP are within 0.2 log units of each other in “shrunken log2 fold change” value: -0.161 for the first, -0.173 for the second.

RRIRFRPPRLPRPRPRPWSLPRP and RRIRFRPPRLPRPRPRPWSYPRP are within 0.2 log units of each other in “shrunken log2 fold change” value: -0.529 for the first, -0.48 for the second.

Going from RRIRFRPPRLPRPRPRPWTKPRP to RRIRFRPPRLPRPRPRPWWAPRP, the “shrunken log2 fold change” value falls from 0.0163 to -0.377.

Going from RRIRFRPPRLPRPRPRPWWGPRP to RRIRFRPPRLPRPRPRPWWRPRP, the “shrunken log2 fold change” value falls from -0.00459 to -0.471.

Compared with RRIRFRPPRLPRPRPRPWYLPRP, RRIRFRPPRLPRPRPRPWYVPRP is lower in “shrunken log2 fold change” value: -0.549 for the first, -0.757 for the second.

Going from RRIRFRPPRLPRPRPRPYFEPRP to RRIRFRPPRLPRPRPRPYFWPRP, the “shrunken log2 fold change” value rises from -0.617 to -0.241.

RRIRFRPPRLPRPRPRPYGGPRP and RRIRFRPPRLPRPRPRPYGIPRP are within 0.2 log units of each other in “shrunken log2 fold change” value: -0.00865 for the first, -0.00674 for the second.

Going from RRIRFRPPRLPRPRPRPYHHPRP to RRIRFRPPRLPRPRPRPYIEPRP, the “shrunken log2 fold change” value rises from -1.16 to -0.504.

Compared with RRIRFRPPRLPRPRPRPYIIPRP, RRIRFRPPRLPRPRPRPYKTPRP is higher in “shrunken log2 fold change” value: -0.395 for the first, -0.166 for the second.

Going from RRIRFRPPRLPRPRPRPYLKPRP to RRIRFRPPRLPRPRPRPYLPPRP, the “shrunken log2 fold change” value rises from -1.36 to -0.216.

Going from RRIRFRPPRLPRPRPRPYNDPRP to RRIRFRPPRLPRPRPRPYNLPRP, the “shrunken log2 fold change” value rises from -0.641 to -0.322.

First: RRIRFRPPRLPRPRPRPYPGPRP
Second: RRIRFRPPRLPRPRPRPYPQPRP
The “shrunken log2 fold change” value of the first is higher: 0.00399 for the first, -0.356 for the second.

RRIRFRPPRLPRPRPRPYQEPRP and RRIRFRPPRLPRPRPRPYQQPRP are within 0.2 log units of each other in “shrunken log2 fold change” value: -0.0819 for the first, 0.00163 for the second.

RRIRFRPPRLPRPRPRPYQSPRP and RRIRFRPPRLPRPRPRPYQVPRP are within 0.2 log units of each other in “shrunken log2 fold change” value: -0.00405 for the first, -0.153 for the second.

RRIRFRPPRLPRPRPRPYRIPRP and RRIRFRPPRLPRPRPRPYRKPRP are within 0.2 log units of each other in “shrunken log2 fold change” value: -0.34 for the first, -0.186 for the second.

Compared with RRIRFRPPRLPRPRPRPYSHPRP, RRIRFRPPRLPRPRPRPYSKPRP is higher in “shrunken log2 fold change” value: -1.77 for the first, -0.996 for the second.

Going from RRIRFRPPRLPRPRPRPYTRPRP to RRIRFRPPRLPRPRPRPYWYPRP, the “shrunken log2 fold change” value falls from -0.369 to -0.675.

Compared with RRIRGRPPRLPRPRPRPACLPRP, RRIRGRPPRLPRPRPRPACWPRP is higher in “shrunken log2 fold change” value: 0.792 for the first, 1.08 for the second.

Going from RRIRGRPPRLPRPRPRPADAPRP to RRIRGRPPRLPRPRPRPADDPRP, the “shrunken log2 fold change” value falls from 1 to 0.563.

Going from RRIRGRPPRLPRPRPRPAFFPRP to RRIRGRPPRLPRPRPRPAFVPRP, the “shrunken log2 fold change” value falls from 0.787 to 0.373.

Going from RRIRGRPPRLPRPRPRPAGHPRP to RRIRGRPPRLPRPRPRPAHGPRP, the “shrunken log2 fold change” value falls from 0.562 to 0.204.

First: RRIRGRPPRLPRPRPRPAHIPRP
Second: RRIRGRPPRLPRPRPRPAKDPRP
The “shrunken log2 fold change” value of the first is lower: 0.0667 for the first, 1.84 for the second.

Going from RRIRGRPPRLPRPRPRPAKQPRP to RRIRGRPPRLPRPRPRPALIPRP, the “shrunken log2 fold change” value rises from 0.199 to 0.737.

First: RRIRGRPPRLPRPRPRPANCPRP
Second: RRIRGRPPRLPRPRPRPANEPRP
The “shrunken log2 fold change” value of the first is higher: 0.147 for the first, -0.0603 for the second.

Compared with RRIRGRPPRLPRPRPRPANSPRP, RRIRGRPPRLPRPRPRPAPSPRP is higher in “shrunken log2 fold change” value: 0.186 for the first, 0.806 for the second.

Compared with RRIRGRPPRLPRPRPRPAPVPRP, RRIRGRPPRLPRPRPRPASGPRP is lower in “shrunken log2 fold change” value: 0.925 for the first, 0.625 for the second.

RRIRGRPPRLPRPRPRPASHPRP and RRIRGRPPRLPRPRPRPATVPRP are within 0.2 log units of each other in “shrunken log2 fold change” value: 0.252 for the first, 0.244 for the second.

RRIRGRPPRLPRPRPRPAVDPRP and RRIRGRPPRLPRPRPRPAWEPRP are within 0.2 log units of each other in “shrunken log2 fold change” value: 0.896 for the first, 1.01 for the second.

For RRIRGRPPRLPRPRPRPAWMPRP, the “shrunken log2 fold change” value was 0.554.
